Experimental data as given in patent publication US20160305952A1 (ROCHE SEQUENCING SOLUTIONS, published 2016).
Where no end group is shown, it is not given here.

B1: GEHYFEFQQ (peptide)
peptide: GEHYFEFQQ
modifications: also: array-bound via 3Z linker
B2: YSWTKVKDY (peptide)
peptide: YSWTKVKDY
modifications: also: array-bound via 3Z linker
B3: GEHYFEFAP (peptide)
peptide: GEHYFEFAP
modifications: also: array-bound via 3Z linker
B4: RSWDWDWKK (peptide)
peptide: RSWDWDWKK
modifications: also: array-bound via 3Z linker
B5: YEWTKVKNY (peptide)
peptide: YEWTKVKNY
modifications: also: array-bound via 3Z linker
B6: FGWKAEKFN (peptide)
peptide: FGWKAEKFN
modifications: also: array-bound via 3Z linker
B7: GQHEFSFGT (peptide)
peptide: GQHEFSFGT
modifications: also: array-bound via 3Z linker
B8: YEHEFSFGT (peptide)
peptide: YEHEFSFGT
modifications: also: array-bound via 3Z linker
B9: KKWDWDWKW (peptide)
peptide: KKWDWDWKW
modifications: also: array-bound via 3Z linker
B10: QQHYFEFEK (peptide)
peptide: QQHYFEFEK
modifications: also: array-bound via 3Z linker
B11: YKWKEDWKW (peptide)
peptide: YKWKEDWKW
modifications: also: array-bound via 3Z linker
B12: WKEDW (peptide)
peptide: WKEDW
modifications: also: array-bound via 5Z linker
B13: WKAEK (peptide)
peptide: WKAEK
modifications: also: array-bound via 5Z linker
B14: WTKVK (peptide)
peptide: WTKVK
modifications: also: array-bound via 5Z linker
B15: HYFEF (peptide)
peptide: HYFEF
modifications: also: array-bound via 5Z linker
B16: WDWDW (peptide)
peptide: WDWDW
modifications: also: array-bound via 5Z linker
B17: HEFSF (peptide)
peptide: HEFSF
modifications: also: array-bound via 5Z linker
B18: FEVYL (peptide)
peptide: FEVYL
modifications: also: array-bound via 5Z linker
B19: WEVHL (peptide)
peptide: WEVHL
modifications: also: array-bound via 5Z linker
B20: WTVYA (peptide)
peptide: WTVYA
modifications: also: array-bound via 5Z linker
B21: RSILY (peptide)
peptide: RSILY
modifications: also: array-bound via 5Z linker
B22: VTVYV (peptide)
peptide: VTVYV
modifications: also: array-bound via 5Z linker
B23: ALYLF (peptide)
peptide: ALYLF
modifications: also: array-bound via 5Z linker
B24: AIAIF (peptide)
peptide: AIAIF
modifications: also: array-bound via 5Z linker
B25: TAVFV (peptide)
peptide: TAVFV
modifications: also: array-bound via 5Z linker
B26: TDFEVYLPK (peptide)
peptide: TDFEVYLPK
modifications: also: array-bound via 3Z linker
B27: NGFEVYLPG (peptide)
peptide: NGFEVYLPG
modifications: also: array-bound via 3Z linker
B28: TGWEVHLGK (peptide)
peptide: TGWEVHLGK
modifications: also: array-bound via 3Z linker
B29: SEWTVYAGN (peptide)
peptide: SEWTVYAGN
modifications: also: array-bound via 3Z linker
B30: GQWEVHLGK (peptide)
peptide: GQWEVHLGK
modifications: also: array-bound via 3Z linker
B31: GQFEVYLPG (peptide)
peptide: GQFEVYLPG
modifications: also: array-bound via 3Z linker
B32: SCRSILYND (peptide)
peptide: SCRSILYND
modifications: also: array-bound via 3Z linker
B33: SCRSILYGQ (peptide)
peptide: SCRSILYGQ
modifications: also: array-bound via 3Z linker
B34: SCRSILYGP (peptide)
peptide: SCRSILYGP
modifications: also: array-bound via 3Z linker
B35: GDWTVYAGN (peptide)
peptide: GDWTVYAGN
modifications: also: array-bound via 3Z linker
B36: GTDFEVYFPKI (peptide)
peptide: GTDFEVYFPKI
B37: ALDWQVYAGFG (peptide)
peptide: ALDWQVYAGFG
B38: GTGWEVHLGKG (peptide)
peptide: GTGWEVHLGKG
B39: QAAIAIFGG (peptide)
peptide: QAAIAIFGG
modifications: also: array-bound via 3Z linker
B40: TSVTVYVNN (peptide)
peptide: TSVTVYVNN
modifications: also: array-bound via 3Z linker
B41: GGTAVFVNT (peptide)
peptide: GGTAVFVNT
modifications: also: array-bound via 3Z linker
B42: DGALYLFGN (peptide)
peptide: DGALYLFGN
modifications: also: array-bound via 3Z linker
B43: NH2-ADYLAEYHGG-COOH (peptide)
peptide: H-ADYLAEYHGG-OH
notes: free peptide, C-terminal carboxylic acid
B44: NH2-AFDYLAQYHGG-amide (peptide)
peptide: H-AFDYLAQYHGG-NH2
notes: free peptide
B45: NH2-WTHPQFEQK-COOH (peptide)
peptide: H-WTHPQFEQK-OH
notes: as for B43
B46: NH2-WTHPQFEQPKA-amide (peptide)
peptide: H-WTHPQFEQPKA-NH2
notes: free peptide
B47: NH2-NSFDDWLAKGG-COOH (peptide)
peptide: H-NSFDDWLAKGG-OH
notes: as for B43
B48: NH2-SAWSHPQFEK-COOH (peptide)
peptide: H-SAWSHPQFEK-OH
notes: free peptide, C-terminal carboxylic acid; bought from IBA; also called Strep-tag II peptide; Strep-Tag II
B49: NH2-AFPDYLAEYHGG-amide (peptide)
peptide: H-AFPDYLAEYHGG-NH2
notes: free peptide

Target: T1, Taq polymerase (UniProt P19821 1-832)
T1 sequence (P19821 whole entry): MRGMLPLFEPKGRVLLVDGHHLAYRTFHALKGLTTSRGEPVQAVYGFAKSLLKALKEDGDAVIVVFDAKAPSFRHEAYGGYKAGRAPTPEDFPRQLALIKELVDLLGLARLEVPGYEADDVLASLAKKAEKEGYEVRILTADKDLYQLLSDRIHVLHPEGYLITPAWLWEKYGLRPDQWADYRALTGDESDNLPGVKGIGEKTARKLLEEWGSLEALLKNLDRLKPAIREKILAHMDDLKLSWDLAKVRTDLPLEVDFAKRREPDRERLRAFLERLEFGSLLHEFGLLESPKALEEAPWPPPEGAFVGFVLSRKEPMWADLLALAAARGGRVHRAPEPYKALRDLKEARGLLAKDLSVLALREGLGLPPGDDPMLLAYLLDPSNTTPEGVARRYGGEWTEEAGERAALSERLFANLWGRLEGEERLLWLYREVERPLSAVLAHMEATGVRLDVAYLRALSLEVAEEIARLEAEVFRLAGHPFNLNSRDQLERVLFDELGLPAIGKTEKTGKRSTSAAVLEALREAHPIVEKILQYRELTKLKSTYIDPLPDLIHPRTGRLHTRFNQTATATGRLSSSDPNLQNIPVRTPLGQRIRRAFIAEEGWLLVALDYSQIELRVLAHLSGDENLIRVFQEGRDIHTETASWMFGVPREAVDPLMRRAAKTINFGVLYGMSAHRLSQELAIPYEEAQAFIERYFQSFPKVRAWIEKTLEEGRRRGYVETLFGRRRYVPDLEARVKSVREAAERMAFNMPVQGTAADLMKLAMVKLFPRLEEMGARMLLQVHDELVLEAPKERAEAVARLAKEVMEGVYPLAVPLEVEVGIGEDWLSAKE
Experiment: peptide array, extension library, 3Z linker

Q: Does B1 bind?
A: binds

Q: Does B2 bind?
A: binds

Q: Does B3 bind?
A: binds

Q: Does B4 bind?
A: binds

Q: Does B5 bind?
A: binds

Q: Does B6 bind?
A: binds

Q: Does B7 bind?
A: binds

Q: Does B8 bind?
A: binds

Q: Does B9 bind?
A: binds

Q: Does B10 bind?
A: binds

Q: Does B11 bind?
A: binds

Target: T1, Taq polymerase
Experiment: peptide array, 5-mer library, 5Z linker

Q: Does B12 bind?
A: binds

Q: Does B13 bind?
A: binds

Q: Does B14 bind?
A: binds

Q: Does B15 bind?
A: binds

Q: Does B16 bind?
A: binds

Q: Does B17 bind?
A: binds

Target: T2, Prostate Specific Antigen (human, UniProt P07288 25-261)
T2 construct: also called PSA
T2 sequence (P07288 25-261 limits assumed): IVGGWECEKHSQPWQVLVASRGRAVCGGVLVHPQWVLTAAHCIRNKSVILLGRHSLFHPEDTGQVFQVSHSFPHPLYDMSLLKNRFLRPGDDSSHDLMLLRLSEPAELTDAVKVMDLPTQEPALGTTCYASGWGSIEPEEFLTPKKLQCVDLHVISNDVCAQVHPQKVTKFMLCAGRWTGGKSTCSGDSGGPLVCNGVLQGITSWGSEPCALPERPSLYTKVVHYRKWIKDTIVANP
Experiment: peptide array, 5-mer library, 5Z linker

Q: Does B18 bind?
A: binds

Q: Does B19 bind?
A: binds

Q: Does B20 bind?
A: binds

Q: Does B21 bind?
A: binds

Target: T3, Tumor Necrosis Factor Alpha (human, UniProt P01375 77-233)
T3 construct: also called TNFα; TNF-α
T3 sequence (P01375 77-233 limits assumed): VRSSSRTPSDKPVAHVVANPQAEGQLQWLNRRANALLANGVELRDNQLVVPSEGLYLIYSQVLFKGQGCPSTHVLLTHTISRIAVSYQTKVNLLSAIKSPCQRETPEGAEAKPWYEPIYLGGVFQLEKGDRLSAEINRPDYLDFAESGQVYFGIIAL
Experiment: peptide array, 5-mer library, 5Z linker

Q: Does B22 bind?
A: binds

Q: Does B23 bind?
A: binds

Q: Does B24 bind?
A: binds

Q: Does B25 bind?
A: binds

Target: T2, Prostate Specific Antigen
Experiment: peptide array, extension library, 3Z linker

Q: Does B26 bind?
A: binds

Q: Does B27 bind?
A: binds

Q: Does B28 bind?
A: binds

Q: Does B29 bind?
A: binds

Q: Does B30 bind?
A: binds

Q: Does B31 bind?
A: binds

Q: Does B32 bind?
A: binds

Q: Does B33 bind?
A: binds

Q: Does B34 bind?
A: binds

Q: Does B35 bind?
A: binds

Target: T2, Prostate Specific Antigen
Experiment: peptide array, double substitution/deletion library

Q: Does B36 bind?
A: binds

Q: Does B37 bind?
A: binds

Q: Does B38 bind?
A: binds

Target: T3, Tumor Necrosis Factor Alpha
Experiment: peptide array, extension library, 3Z linker

Q: Does B39 bind?
A: binds

Q: Does B40 bind?
A: binds

Q: Does B41 bind?
A: binds

Q: Does B42 bind?
A: binds

Target: T4, streptavidin (UniProt P22629 37-163, limits assumed)
T4 construct: amine-coupled to a CM5 chip for SPR; also called SA
T4 sequence (P22629 37-163 limits assumed): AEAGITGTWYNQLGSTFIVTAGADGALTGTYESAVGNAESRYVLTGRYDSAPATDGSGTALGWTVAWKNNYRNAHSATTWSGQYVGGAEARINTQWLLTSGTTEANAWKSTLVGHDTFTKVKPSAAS
Experiment: SPR, Biacore X100, streptavidin on CM5 chip, peptide in solution
Excerpt: A selection of streptavidin peptide binders listed in Table 15 were synthesized using standard column-based synthesis techniques by UW Biotechnology center (Madison, Wis.) or by Peptide2.0 (Chantilly, Va.) at 98-99% purity. Strep-tag II peptide NH2-[…]-COOH was purchased from IBA GmbH (Goettingen, Germany). Synthesized peptides were then characterized by Surface Plasmon Resonance (SPR) to identify binding characteristics including the association rate constant (kₛ), dissociation rate constant (kd), and equilibrium dissociation […] (kd/kₐ=KD). In one aspect, SPR experiments were performed by using Biacore X100 instrument (GE Healthcare). Preliminarily, 60 μl of 100 μg/ml streptavidin in 10 mM Na-acetate, pH5.0 was immobilized to flow cell 2 (Fc2) of a sensor chip CM5 (GE Healthcare) using Amine Coupling Kit (GE Healthcare) at 20° C. for 6 min. Peptide stock solutions were prepared at 5 or 10 mM concentration in water and diluted in HBS-EP+ (GE Healthcare) buffer before SPR experiments. Peptide binding was performed in a multiple kinetics mode using HBS-EP+ as a running buffer and 0.2 M NaCl, 10 mM NaOH or 10 mM HCl-glycine, […] as regeneration buffer. Binding kinetics parameters were calculated with Biacore X100 software.

Q: How did the Kd turn out when B43 was run?
A: 96 µM

Q: With B44 as the binder, how does the Kd read?
A: 1.52 µM

Q: What about the koff of the same binder?
A: 0.0354 s⁻¹

Q: What about the kon of the same binder?
A: 23300 M⁻¹ s⁻¹

Q: How did the Kd turn out when B45 was run?
A: 15.5 µM

Q: B46 was tested. Which Kd did it give?
A: 7.9 µM

Q: Which Kd does the source give for B47 here?
A: 11.3 µM

Q: For B48, which Kd is on record?
A: 49.8 µM

Q: B49 was tested. Which Kd did it give?
A: 0.043 µM

Q: And the koff?
A: 0.00128 s⁻¹

Q: What about the kon of the same binder?
A: 30100 M⁻¹ s⁻¹
